Laboratory results reported in patent publication US7374920B2, “Ginkgo biloba levopimaradiene synthase” (priority 2001, dated 2008).
Entries after “also recorded” stand apart in the source; their conditions may differ.

B1: Ser^61: Ginkgo biloba levopimaradiene synthase truncated at Ala^60-Ser^61; amino acid sequence SEQ.ID.NO:35 (protein, listed as Ginkgo biloba)
chain: MSAAETRPDQLPQEERFVSRLNADYHPAVWKDDFIDSLTSPNSHATSKSSVDETINKRIQTLVKEIQCMFQSMGDGETNPSAYDTAWVARIPSIDGSGAPQFPQTLQWILNNQLPDGSWGEECIFLAYDRVLNTLACLLTLKIWNKGDIQVQKGVEFVRKHMEEMKDEADNHRPSGFEVVFPAMLDEAKSLGLDLPYHLPFISQIHQKRQKKLQKIPLNVLHNHQTALLYSLEGLQDVVDWQEITNLQSRDGSFLSSPASTACVFMHTQNKRCLHFLNFVLSKFGDYVPCHYPLDLFERLWAVDTVERLGIDRYFKKEIKESLDYVYRYWDAERGVGWARCNPIPDVDDTAMGLRILRLHGYNVSSDVLENFRDEKGDFFCFAGQTQIGVTDNLNLYRCSQVCFPGEKIMEEAKTFTTNHLQNALAKNNAFDKWAVKKDLPGEVEYAIKYPWHRSMPRLEARSYIEQFGSNDVWLGKTVYKMLYVSNEKYLELAKLDFNMVQALHQKETQHIVSWWRESGFNDLTFTRQRPVEMYFSVAVSMFEPEFAACRIAYAKTSCLAVILDDLYDTHGSLDDLKLFSEAVRRWDISVLDSVRDNQLKVCFLGLYNTVNGFGKDGLKEQGRDVLGYLRKVWEGLLASYTKEAEWSAAKYVPTFNEYVENAKVSIALATVVLNSIFFTGELLPDYILQQVDLRSKFLHLVSLTGRLINDTKTYQAERNRGELVSSVQCYMRENPECTEEEALSHVYGIIDNALKELNWELANPASNAPLCVRRLLFNTARVMQLFYMYRDGFGISDKEMKDHVSRTLFDPVA
B2: Ala^2 (protein, listed as Ginkgo biloba)
chain: MAGVLFANLPCSLQLSPKVPFRQSTNILIPFHKRSSFGFNAQHCVRSHLRLRWNCVGIHASAAETRPDQLPQEERFVSRLNADYHPAVWKDDFIDSLTSPNSHATSKSSVDETINKRIQTLVKEIQCMFQSMGDGETNPSAYDTAWVARIPSIDGSGAPQFPQTLQWILNNQLPDGSWGEECIFLAYDRVLNTLACLLTLKIWNKGDIQVQKGVEFVRKHMEEMKDEADNHRPSGFEVVFPAMLDEAKSLGLDLPYHLPFISQIHQKRQKKLQKIPLNVLHNHQTALLYSLEGLQDVVDWQEITNLQSRDGSFLSSPASTACVFMHTQNKRCLHFLNFVLSKFGDYVPCHYPLDLFERLWAVDTVERLGIDRYFKKEIKESLDYVYRYWDAERGVGWARCNPIPDVDDTAMGLRILRLHGYNVSSDVLENFRDEKGDFFCFAGQTQIGVTDNLNLYRCSQVCFPGEKIMEEAKTFTTNHLQNALAKNNAFDKWAVKKDLPGEVEYAIKYPWHRSMPRLEARSYIEQFGSNDVWLGKTVYKMLYVSNEKYLELAKLDFNMVQALHQKETQHIVSWWRESGFNDLTFTRQRPVEMYFSVAVSMFEPEFAACRIAYAKTSCLAVILDDLYDTHGSLDDLKLFSEAVRRWDISVLDSVRDNQLKVCFLGLYNTVNGFGKDGLKEQGRDVLGYLRKVWEGLLASYTKEAEWSAAKYVPTFNEYVENAKVSIALATVVLNSIFFTGELLPDYILQQVDLRSKFLHLVSLTGRLINDTKTYQAERNRGELVSSVQCYMRENPECTEEEALSHVYGIIDNALKELNWELANPASNAPLCVRRLLFNTARVMQLFYMYRDGFGISDKEMKDHVSRTLFDPVA

Tests used:
[1] = in vitro assay of levopimaradiene synthase constructs expressed in wild-type S. cerevisiae JBY575; assay type: biochemical, Saccharomyces cerevisiae; conditions: wild-type S. cerevisiae JBY575, galactose 48 hours, lysate with GGDP
Experimental: Expression in S. cerevisiae JBY575, which represents wild-type yeast, was observed. JBY575 cells transformed with pRS426GAL inserted with the putative levopimaradiene synthase were grown in synthetic complete medium lacking uracil and supplemented with 2% glucose and 1.5% agar at 30° C. to saturation and induced with galactose for 48 hours. Cells were harvested, resuspended in lysis buffer, and mixed by vortexing over glass beads. The lysate was assayed with 60 μM GGDP in the presence and absence of 0.2% and 5% Triton X-100.
All in vitro reactions were extracted 3× with hexane and dried over MgSO4. The reaction was further extracted twice with diethyl ether and dried over MgSO4. Thereafter, the crude lysate was suspended in 100 mM Tris, pH 8.0 containing 2.9 units/mg apyrase (a dephosphorylating agent) and 10 units/μL calf intestinal alkaline phosphatase, incubated at 30° C. for 3 hours, and extracted with diethyl ether as noted above (Croteau and Cane, 1985). The crude reaction mixtures were eluted over SiO2, concentrated, and analyzed by GC and GC/MS.
Gas chromatography spectra were obtained on a Hewlett Packard 6890 Series GC System equipped with an Rtx-5 capillary column (Restek, 30 m×0.25 mm i.d., 0.10 μm df). The following separation conditions and temperature program were employed: injector port 250° C., FID 250° C., split ratio 39:1, helium flow 20 cm/s (0.6 mL/min), 150° C. hold 5 min, increase to 250° C. (5° C./min), hold 5 min. GC/MS spectra were obtained on a Hewlett-Packard 5890A instrument with a 30-m DB-5 ms column (J&W Scientific Inc., 0.25 mm i.d., 0.10 μm df). The following separation conditions and temperature program were employed: injector port 280° C., transfer lines: 280° C., helium flow at 30 cm/s (1 mL/min) with splitless injection at 150° C. hold 3 min, increase to 250° C. (5° C./min), hold 5 min. Mass spectra (m/z 50 to 500) were obtained on a VG ZAB-HF reverse-geometry double-focusing instrument at 70 eV with an electron-impact ion source (200° C.). Accelerating voltage was set to 8 kV and the resolution was 1000 (10% valley).
The skilled artisan recognizes that lysis and assay conditions should be optimized. Examples of parameters that can be adjusted to optimize conditions include altering buffer, pH, reductant, reductant concentration, metal cofactors, cofactor concentrations, glycerol concentrations, substrate concentrations, and assay temperatures. […] Maximum soluble protein production and diterpene yield were obtained with the following conditions. Cell cultures were induced with 1 mM IPTG at 20° C. with shaking for 6 hours and lysed by sonication in 30 mM HEPES, pH 7.2, 5 mM DTT, and 5% glycerol. The soluble fraction of the lysate (100 mg/1 mL) was incubated with 20 μM GGDP in 30 mM HEPES, pH 7.2, 5 mM DTT, 5% glycerol, 2 mM MgCl2, and 500 μM MnCl2 overnight at 32° C. Yeast expression was induced with galactose at 30° C. for 48 hours and the cells were lysed and assayed according to the conditions noted.

EHY18 yeast cells = assay: in vivo expression of GbLS constructs in yeast strain EHY18 that accumulates GGDP, GC quantitation of products; assay type: cell-based; conditions: for diterpene products on expression in EHY18: GC, GC/MS
Experimental: The yeast strain of the copending application employed was EHY18 (Hart, E., 2001) which was further transformed with multiple-copy yeast expression vectors comprising an isolated and purified nucleic acid sequence of GbLS or derivatives thereof, which are described herein under control of the GAL1 inducible promoter. Yeast cells were grown to saturation in 5 mL ScD-Leu-Ura at 30° C. Cells were harvested (1300×g, 2 min, 25° C.) and resuspended in 500 μL sterile Milli-Q H2O (2×). The washed cells were resuspended in 5 mL sterile Milli-Q H2O. An aliquot of the culture (5 μL) was added to a 25 mL Corex tube containing pre-prepared 2× resin and 5 mL ScG-Leu-Ura (4% galactose) and shaken at 30° C. for 6 days. Resin was collected by filtration through a Kontes chromatography column (1.7 cm diameter) and rinsed with dI H2O until eluent was clear. The resin was incubated in 2 mL ethanol for several minutes, eluted, and repeated 2×. The combined eluents were dissolved in approximately 3 mL dI H2O and extracted (3×) with 3 mL hexane. The combined extracts were concentrated under a stream of nitrogen. GC analysis (quantitation extrapolated from 0.2 mg/mL longifolene external standard) indicated the following product profile (obtained from triplicate measurement of three cultures): 0.61±0.20 mg/L levopimaradiene, 0.04±0.01 mg/L abietadiene, 0.15±0.05 mg/L abietatriene, 0.16±0.13 mg/L (+)-copalol, and 1.79±0.90 mg/L geranylgeraniol. GC/MS fragmentation confirmed the identity of each compound.
A large scale culture (1-L) was prepared by growing the yeast cells to saturation in 5 mL ScD-Leu-Ura at 30° C. Cells were harvested (1300×g, 2 min, 25° C.) and resuspended in 500 μL sterile Milli-Q H2O (2×). The washed cells were resuspended in 5 mL sterile Milli-Q H2O. An aliquot of the culture (1 mL) was added to a 2 L flask containing 1-L ScG-Leu-Ura (4% galactose) and 88.27 g resin in 120 mL Milli-Q H2O (pre-prepared). The resin was eluted with ethanol (3×100 mL with 20 min incubation periods), which was subsequently extracted (6×) with hexane. The combined extracts were dried over magnesium sulfate, filtered, and concentrated under reduced pressure. GC analysis (quantitation extrapolated from 0.2 mg/mL longifolene external standard) indicated the following product profile (obtained from triplicate measurement): 0.29±0.04 mg/L levopimaradiene, 0.04±0.02 mg/L abietadiene, 0.13±0.04 mg/L abietatriene, 0.11±0.02 mg/L (+)-copalol, and 0.56±0.03 mg/L geranylgeraniol. GC/MS analyses confirmed the production of the above noted diterpenes, which included hydrocarbons and an alcohol.
Further optimization studies employed the Ser61 construct. Factors influencing diterpene production included induction period and concentration of galactose and resin in the inducing medium.

[2] = EHY18, 6 days, 4% galactose, 0.70 g resin/5 mL culture medium, GC quantitation

Row | Molecule | diterpene product on yeast expression [1] | diterpene production relative to wild-type synthase (EHY18 yeast cells; EHY18) | net yield of (+)-copalol (EHY18 yeast cells; [2]) [mg/L] | net yield of diterpene hydrocarbons (EHY18 yeast cells; [2]) [mg/L] | diterpene products on expression in EHY18 (EHY18 yeast cells) | diterpene product on yeast expression ([1]; listed as full-length)
1 | B1 | yielded levopimaradiene as the sole diterpene; also recorded: yielded levopimaradiene synthase activity | approximately four | ~0.2 | ~0.8 | produced (+)-copalol, levopimaradiene, abietadiene, and abietatriene | 
2 | B2 | failed to produce observable levels of any diterpene product |  |  |  | produced (+)-copalol, levopimaradiene, abietadiene, and abietatriene | failed to produce detectable levels of biosynthetic product
